Measured values reported in patent publication US20090104196A1 (UNIVERSITAETSKLINIKUM FREIBURG, published 2009).

Biological target: T1, LSD1 1-174 (N-terminus of LSD1), labelled (UniProt O60341 1-174)
T1 construct: Labelled LSD1 deletion mutant used in the GST pull-down; not shown: Flag tag of the CMX-Flag vector
Assay: GST pull-down, labelled LSD1 mutant
Protocol: GST, GST-Nix1, GST-ROR[…], and GST ERβ-NTD proteins were used as control. (NTD; N-terminal domain, DBD; DNA-binding domain, LBD; ligand-binding domain).
GST pull-down assays were performed with equal amounts of GST or GST fusion proteins as described¹⁷ using buffer containing either 150 mM KCl, 0.15% NP40 (FIG. 1b) or 600 mM KCl, 0.3% NP40 (FIG. 7a). Pull-downs with sepharose coupled histone H3 tail were performed as described²⁷ in 20 mM Tris pH 8.5, 150 mM NaCl, 0.5% NP40.10% of the in vitro translated proteins were loaded as input.

B1: GST-AR-DBD (GST fused to the DNA-binding domain of the androgen receptor), bacterially expressed (other, UniProt P10275 560-632, looked up)
chain: CLICGDEASGCHYGALTCGSCKVFFKRAAEGKQKYLCASRNDCTIDKFRRKNCPSCRLRKCYEAGMTLGARKL
notes: also called GST-AR fusion protein; not shown: glutathione S-transferase (GST) fusion partner
binding result: no binding
